Test results as given in patent WO2021028359A1.
“And” between values parts separate entries of the source, which are not always exact repeats. Equal values may be shown once.

Target: CD20 on autologous CD19+CD20+ B cells (human) (UniProt P11836)
Assay: cell-based or functional assay

CD20 on autologous CD19+CD20+ B cells (human), sequence (P11836 whole entry): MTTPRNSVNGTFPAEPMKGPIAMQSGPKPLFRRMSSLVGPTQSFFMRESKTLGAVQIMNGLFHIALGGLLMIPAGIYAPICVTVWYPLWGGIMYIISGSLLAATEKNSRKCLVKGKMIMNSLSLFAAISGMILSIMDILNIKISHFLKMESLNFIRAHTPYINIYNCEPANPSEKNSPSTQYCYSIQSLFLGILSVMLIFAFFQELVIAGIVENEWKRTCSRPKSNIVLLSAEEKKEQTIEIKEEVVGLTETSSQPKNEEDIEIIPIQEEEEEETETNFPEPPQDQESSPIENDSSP

fold of CD69 activation of Tregs, hFXP3-driven CAR, 24 h with autologous B cells: 1.9 fold and 1.8 fold
fold of CD69 activation of Tregs, hPGK-driven CAR (TX028), 24 h with autologous B cells: 1.5 fold
Substance: CD20 CAR (CD8 leader, scFv directed against CD20 (B9E9), streptavidin tag, CD8 alpha linker and transmembrane domain, 4-1BB activation domain, CD3 zeta activation domain) (receptor)
